These binders were tested against C. difficile toxin A (Clostridium difficile, UniProt P16154 1-2710) (assay: cell-based or functional assay).
Sequence of C. difficile toxin A (P16154 whole entry): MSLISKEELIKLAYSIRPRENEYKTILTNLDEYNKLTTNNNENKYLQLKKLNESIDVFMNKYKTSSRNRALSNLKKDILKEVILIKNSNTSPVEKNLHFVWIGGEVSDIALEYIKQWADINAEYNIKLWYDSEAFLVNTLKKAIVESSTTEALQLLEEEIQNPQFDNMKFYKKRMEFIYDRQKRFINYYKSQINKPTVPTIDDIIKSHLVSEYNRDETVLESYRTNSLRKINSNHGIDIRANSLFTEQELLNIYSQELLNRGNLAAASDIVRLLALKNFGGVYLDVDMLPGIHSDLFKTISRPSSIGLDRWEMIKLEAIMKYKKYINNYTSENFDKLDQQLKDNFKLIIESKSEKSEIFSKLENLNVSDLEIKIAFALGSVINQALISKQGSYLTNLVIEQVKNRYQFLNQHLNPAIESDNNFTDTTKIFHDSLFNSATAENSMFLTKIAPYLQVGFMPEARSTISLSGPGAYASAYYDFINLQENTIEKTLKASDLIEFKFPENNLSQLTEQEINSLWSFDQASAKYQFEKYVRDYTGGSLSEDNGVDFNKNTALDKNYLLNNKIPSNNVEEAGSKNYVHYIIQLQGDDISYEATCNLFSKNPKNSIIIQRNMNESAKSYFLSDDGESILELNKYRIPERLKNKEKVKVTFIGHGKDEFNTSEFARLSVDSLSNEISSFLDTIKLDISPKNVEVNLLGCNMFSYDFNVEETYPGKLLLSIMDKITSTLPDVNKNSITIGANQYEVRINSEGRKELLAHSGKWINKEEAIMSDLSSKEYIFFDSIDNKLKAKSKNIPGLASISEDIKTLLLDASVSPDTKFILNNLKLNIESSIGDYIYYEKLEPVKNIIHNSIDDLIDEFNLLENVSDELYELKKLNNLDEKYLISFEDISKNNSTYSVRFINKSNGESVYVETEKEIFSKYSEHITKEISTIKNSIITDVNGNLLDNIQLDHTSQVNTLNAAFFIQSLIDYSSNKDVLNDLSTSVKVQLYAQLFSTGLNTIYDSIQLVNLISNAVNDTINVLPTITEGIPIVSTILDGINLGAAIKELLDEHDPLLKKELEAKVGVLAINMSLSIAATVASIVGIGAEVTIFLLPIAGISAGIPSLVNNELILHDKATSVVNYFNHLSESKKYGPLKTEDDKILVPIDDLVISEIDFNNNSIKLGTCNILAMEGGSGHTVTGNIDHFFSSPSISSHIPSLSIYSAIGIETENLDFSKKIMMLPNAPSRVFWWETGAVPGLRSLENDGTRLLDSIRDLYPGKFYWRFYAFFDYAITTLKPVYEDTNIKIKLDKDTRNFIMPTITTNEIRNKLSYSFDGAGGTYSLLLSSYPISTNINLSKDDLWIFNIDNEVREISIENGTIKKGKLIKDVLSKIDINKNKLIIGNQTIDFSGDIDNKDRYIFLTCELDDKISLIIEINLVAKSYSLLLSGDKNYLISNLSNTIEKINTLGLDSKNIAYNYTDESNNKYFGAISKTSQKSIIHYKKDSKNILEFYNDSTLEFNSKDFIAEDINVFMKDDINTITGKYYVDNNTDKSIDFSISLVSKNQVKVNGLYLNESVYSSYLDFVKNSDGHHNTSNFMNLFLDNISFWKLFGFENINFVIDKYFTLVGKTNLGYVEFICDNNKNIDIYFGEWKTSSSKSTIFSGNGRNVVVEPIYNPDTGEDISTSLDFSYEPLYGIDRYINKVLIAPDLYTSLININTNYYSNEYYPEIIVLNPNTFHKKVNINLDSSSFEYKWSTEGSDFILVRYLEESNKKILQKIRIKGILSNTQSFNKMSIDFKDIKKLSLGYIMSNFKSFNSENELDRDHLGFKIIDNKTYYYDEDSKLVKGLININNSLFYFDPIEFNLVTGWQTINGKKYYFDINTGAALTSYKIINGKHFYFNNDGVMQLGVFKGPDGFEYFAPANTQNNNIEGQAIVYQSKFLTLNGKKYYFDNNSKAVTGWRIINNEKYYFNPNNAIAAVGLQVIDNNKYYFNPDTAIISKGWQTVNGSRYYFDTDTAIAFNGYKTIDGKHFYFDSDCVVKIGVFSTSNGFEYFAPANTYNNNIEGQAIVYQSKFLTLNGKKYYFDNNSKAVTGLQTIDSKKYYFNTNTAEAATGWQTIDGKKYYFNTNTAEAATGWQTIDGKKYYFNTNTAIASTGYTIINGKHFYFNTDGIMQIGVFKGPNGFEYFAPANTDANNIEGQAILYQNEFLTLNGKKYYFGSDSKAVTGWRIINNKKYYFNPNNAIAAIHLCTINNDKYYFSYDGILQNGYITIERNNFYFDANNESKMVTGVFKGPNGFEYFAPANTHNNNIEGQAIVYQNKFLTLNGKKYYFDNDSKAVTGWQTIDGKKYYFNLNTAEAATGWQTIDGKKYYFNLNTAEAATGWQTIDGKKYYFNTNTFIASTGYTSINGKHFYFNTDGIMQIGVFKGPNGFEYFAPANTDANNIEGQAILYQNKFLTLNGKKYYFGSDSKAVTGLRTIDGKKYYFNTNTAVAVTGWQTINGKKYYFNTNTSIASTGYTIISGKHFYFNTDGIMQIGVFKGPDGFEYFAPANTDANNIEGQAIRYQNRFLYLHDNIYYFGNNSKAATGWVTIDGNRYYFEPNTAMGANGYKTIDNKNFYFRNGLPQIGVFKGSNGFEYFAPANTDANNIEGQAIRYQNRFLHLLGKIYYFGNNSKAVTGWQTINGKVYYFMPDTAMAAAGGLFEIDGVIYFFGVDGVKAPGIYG

Binder	EC50 TcdA [RLU], toxin neutralization assay (TNA) on IMR90 cells [RLU]
hCDIFA-51 (antibody, V domains shown) VH: EVQLLESGGGVVQPGRSLRLSCAASGFTFSNYGMHWVRQAPGKGLEWVAVIWYDGSNKYYADSVKGRFTISRDNSKNMVYLQMNSLRGADTAVYYCAGDRHLGLWGYYYYYYAMDVWGQGTTVTVSS VL: QAVVTQPPSVSAAPGQRVTISCSGSSSNIGKNYVSWYQHLPGTAPKLLIYESNKRPSGIPDRFSGSKSGTSATLGITGLQTGDEADYYCGTWDSSLSAGLFGGGTKVTVLG	1640
hCDIFA-49 (antibody, V domains shown) VH: QVQLQESGPRLLEPSETLSLSCTVSGGSITSYYWGWIRQSPGKGLQWIGHIDSSGNTNYNYNSSLMNRVTISVVTSKNQFSLKLTSVTPADSAVYYCARVYLFYFGQSKWEYFDSWGQGTLVTVSS VL: QSALTQPPSVSGAPGQRVTISCTGSDSNIGTDYDVHWYKQVPGAAPKLLIYGINNRPSGVPDRFSGSKSGTSASLAITGLQAEDEGDYYCQSYDIRPSGSVVFGGGTKLTVLG	305000
hCDIFA-54 (antibody, V domains shown) VH: QVQLVESGAEVKKPGASVKVSCKASGYTFTSYDINWVRQATGQGLEWMGWMNPNSGNTGYAQKFQGRVTMTRNTSISTAYMELSSLRSEDTAVYYCARGGPNSGSFSHWFDPWGQGTLVTVSS VL: QAVVTQPPSASASLGASVTLTCTLSSGYSNYKVDWYQQRPGKGPRFVMRVGTGGIVGSKGDGIPDRFSVLGSGLNRYLTIKNIQEDDESDYHCGADHGSGSNFAVVFGGGTKLTVLG	1490
hCDIFA-47 (antibody, V domains shown) VH: QVQLQESGAEVKKPGSSVKVSCQASGGTFSNYAFNWVRQAPGQGLEWMGRTIPIVGLVNYAQNFQGRITFSADKSTSTAYMEVNSLRSDDTAVYYCARAEYPLNCTRGNCDVGTSYHYYYGMGVWGRGTTVTVSS VL: EIVMTQSPATLSVSPGERATLSCRASQSISSNLAWFQQKPGQAPRLLIHGASTRATGIPVRFSGSGSGTEFTLTISSLQFGDSAVYYCQQYYNWRYTFGQGTKLEIKR	12700
hCDIFA-53 (antibody, V domains shown) VH: QVQLQQSGPGLVKPSETLSLTCTLSGGSISSDNYYWGWVRQPPGKGLEWIGSIYYSGSTYYNPSLKSRVFISVDMSKNQFSLKLSSVTAADTAVYYCARHTQGLGILRYFDWWTRPFDYWGQGTLVTVSS VL: QSALTQPASVSGSPGQSITISCTGTSSDVGSYNLVSWYQQHPGKAPKLMIYEGSKRPSGVSNRFSGSKSGNTASLTISGLQAEDEADYYCCSYAGSSTLFGGGTKLTVLG	4100
hCDIFA-43 (antibody, V domains shown) VH: QVQLVQSGPVLVKPTETLMLTCTVSGFSLSSAGMGVSWIRQPPGKAPEWLAHIFLSDEKSYRTSLESRLTISKDTSKSQVVLIMTNVDPADTATYYCARALKRYCTGGVCFLNWFDSWGPGTVVTVSS VL: DIVMTQSPGTLSLSPGERATLSCRASLSIGNLYLAWYKQRPGHPPRLLIYGASSRATGTPDRFSGSGSGTDFTLTISRLEPEDFVVYYCQQYKTSPWTFGQGTKVEIKR	3210
hCDIFA-4 (antibody, V domains shown) VH: QVQLQESGPGLVKPSGTLSLTCAVSGGSISSINWWSWVRQPPGKGLEWIGEIYHSGSTNYNPSLKSRVTISVDKSKNQFSLKLSSVTAADTAVYYCAREGKVDSSSQGNWFDPWGQGTLVTVSS VL: QPVLTQPRSVSGSPGQSVTISCTGTSSDVGGYNYVSWYQQHPGKAPKFMIYDVSKRPSGVPDRFSGSKSGNTASLTISGLQAEDEADYYCCSYAGTYTFYVFGTGTKVTVLG	22800
hCDIFA-50 (antibody, V domains shown) VH: QVQLVQSGTEVKKPGASVKVSCKASGYTFTNYGISWVRQAPGQGLEWMGWISGNNGHTNYAQNLQGRVTMTTDTSTSTAYMELRSLRSDDTAVYYCARVTRWFGELLGDYWGQGTLVTVSS VL: QTVVTQEPSLTVSPGGTVTLTCASSTGAVTSGFLPNWFQQKPGQAPRALIYNTNNKHSWTPARFSGSLLGGKAALTLSGVQPEDEAEYYCLLYFDDAQVQVFGGGTKLTVLG	1490

From patent US20230218735A1 (Pfizer, published 2023)
